Measurements as given in publication doi:10.1101/2022.11.07.515376 (bioRxiv, 2022).

How the values were obtained:
SEC = molecular target: the molecule itself; test: SEC
ITC = molecular target: the molecule itself; test: ITC
AUC = molecular target: the molecule itself; test: AUC

B1: MSMEG_2027, full-length (as used in the solution studies) (enzyme)
chain: MTDAELSPTDWVREQTERILEQGTTDGVHVLDRPIVLFTTTGAKSGKKRYVPLMRVEENGKYAMVASKGGDPKHPSWYFNVKANPTVSVQDGDKVLPDRTARELEGEEREHWWKLAVEAYPPYAEYQTKTDRLIPVFIVE
With B1 the “stoichiometry N” value (SEC) was 2, the Kd (ITC) was roughly 1.2 µM and the Kd (AUC) was roughly 8 µM.
